Test results taken from patent US20110256153A1 (IMMUNOGEN, published 2011).
One block for each binder: values may come before it.

What was measured:
human CD37 [1] = target: T1, human CD37 (human, UniProt P11049 1-278); assay: flow cytometry titration on Ramos cells; apparent Kd
T1 construct: Tetraspanin antigen; Expressed on 300-19 cells transfected with pSRa-CD37 (entire CDS) or endogenous on WSU-DLCL-2, BJAB and Ramos lymphoma cells; also called CD37 antigen; human CD37 wildtype
T1 sequence: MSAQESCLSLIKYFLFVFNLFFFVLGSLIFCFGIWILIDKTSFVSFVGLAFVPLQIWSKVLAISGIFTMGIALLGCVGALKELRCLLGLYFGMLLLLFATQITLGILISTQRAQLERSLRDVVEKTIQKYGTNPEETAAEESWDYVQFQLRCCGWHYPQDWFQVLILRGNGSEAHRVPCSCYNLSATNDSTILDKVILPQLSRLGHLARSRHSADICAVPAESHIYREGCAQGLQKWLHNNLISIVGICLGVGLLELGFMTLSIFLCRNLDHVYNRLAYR
Experimental: (§1) Binding specificity was tested by flow cytometry using purified antibodies. […] All murine antibodies were incubated for 3 h with either CD37-expressing 300-19 cells or the non-transfected 300-19 cells (1×10⁵ cells per sample) in 100 μL FACS buffer (RPMI-1640 medium supplemented with 2% normal goat serum). Then, the cells were pelleted, washed, and incubated for 1 h with 100 μL of FITC-conjugated goat anti-mouse IgG-antibody (Jackson Laboratory, 6 μg/mL in FACS buffer). The cells were pelleted again, washed with FACS buffer and resuspended in 200 μL of PBS containing 1% formaldehyde. Samples were acquired using a FACSCalibur flow cytometer with the HTS multiwell sampler or a FACS array flow cytometer and analyzed using CellQuest Pro (all from BD Biosciences, San Diego, US).
The chimeric antibodies chCD37-3 and chCD37-12 were assayed for their binding affinity to Ramos cells in comparison to their murine counterparts. Flow cytometry binding assays using Ramos cells and muCD37-3, chCD37-3, muCD37-12 and chCD37-12 antibodies were carried out and analyzed as described in Example 2 using secondary FITC-conjugated goat-anti-murine and -anti-human antibodies. FIG. 9A depicts the dose-response curves generated by non-linear regression for each antibody. The value for the apparent dissociation constant (Kd) of each antibody was calculated using GraphPad Prism v4 (GraphPad software, San Diego, Calif.).

human CD37 [2] = target: T1, human CD37; assay: competition flow cytometry on BJAB cells; competitor PE-labeled muCD37-3 (1 nM)
Experimental: Flow cytometry binding assays using BJAB cells and a competitive binding format were used to evaluate binding affinity of chimeric and humanized versions of CD37-3. BJAB cells were incubated with a 1 nM concentration of PE-labeled muCD37-3 antibody and competition was measured by adding varying amounts of muCD37-3, chCD37-3, huCD37-3v1.0 or huCD37-3v1.01. The samples were incubated for 3 hrs at 4° C. Then, the cells were pelleted, washed with FACS buffer and resuspended in 200 μL of PBS containing 1% formaldehyde. Samples were acquired using a FACSCalibur flow cytometer with the HTS multiwell sampler and analyzed using CellQuest Pro (all from BD Biosciences, San Diego, US). The resulting mean PE fluorescence was plotted against the amount of competing antibody used in a semi-log plot. FIG. 9B depicts the dose-response curves generated by non-linear regression for each antibody. The value for the apparent dissociation constant (Kd) of each antibody was calculated using GraphPad Prism v4 (GraphPad software, San Diego, Calif.).

human CD37 [3] = target: T1, human CD37; assay: flow cytometry titration on BJAB cells (FIG. 20B); apparent Kd
human CD37 [4] = target: T1, human CD37; assay: cell-based or functional assay
human CD37 [5] = target: T1, human CD37; assay: flow cytometry titration on BJAB cells; apparent Kd
Experimental: as §1
The humanized antibodies huCD37-38, huCD37-50, huCD37-51, huCD37-56 and chCD37-57 were assayed for their binding affinity to BJAB cells in comparison to their murine counterparts. Flow cytometry binding assays were carried out using secondary FITC-conjugated goat-anti-murine and -anti-human antibodies, analyzed as described in Example 2 and dose-response curves were generated by non-linear regression for each antibody. The value for the apparent dissociation constant (Kd) of each antibody was calculated using GraphPad Prism v4 (GraphPad software, San Diego, Calif.).

macaque CD37 [6] = target: T2, macaque CD37 (macaque, UniProt P11049 1-277 (human entry)); assay: flow cytometry titration on 300-19/CD37mac cells; apparent Kd
T2 construct: Expressed on 300-19 cells transfected with pSRa-CD37mac (300-19/CD37mac cells); also called macaca CD37; macaque derived CD37 antigen
T2 chain: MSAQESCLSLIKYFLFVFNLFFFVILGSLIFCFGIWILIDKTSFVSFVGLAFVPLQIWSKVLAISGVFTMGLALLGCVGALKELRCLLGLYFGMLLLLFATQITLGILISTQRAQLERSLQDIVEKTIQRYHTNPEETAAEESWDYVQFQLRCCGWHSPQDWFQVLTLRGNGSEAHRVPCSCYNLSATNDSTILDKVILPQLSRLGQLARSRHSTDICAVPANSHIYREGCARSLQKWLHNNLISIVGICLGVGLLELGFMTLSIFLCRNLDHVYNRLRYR
Experimental: as §1
Flow cytometry binding assays were carried out using secondary FITC-conjugated goat-anti-human antibodies, analyzed as described in Example 2 and dose-response curves were generated by non-linear regression for each antibody. The value for the apparent dissociation constant (Kd) of each antibody was calculated using GraphPad Prism v4 (GraphPad software, San Diego, Calif.).

human CD37 [7] = target: T1, human CD37; assay: flow cytometry titration on WSU-DLCL-2 cells; EC50 taken as apparent Kd
Experimental: as §1
To verify that the antibodies can also bind to endogenously expressed CD37, binding experiments were performed with CD37-positive WSU-DLCL-2 lymphoma cells and the muCD37-3, muCD37-12, muCD37-8, muCD37-10 or muCD37-14 antibodies. WSU-DLCL-2 cells were incubated with varying concentrations of murine antibodies and processed as described above for flow cytometry analysis. Data analysis was performed using CellQuest Pro (BD Biosciences, San Diego, US) and for each sample the mean fluorescence intensity for FL1 (MFI) was exported and plotted against the antibody concentration in a semi-log plot (FIG. 3). […]

hCD37-M45 = target: T3, hCD37-M45 (human/murine chimera, UniProt P11049 1-281); assay: flow cytometry, 300-19 cells expressing hCD37-M45
T3 construct: stably expressed on 300-19 cells; also called hCD37-M45 variant
T3 chain: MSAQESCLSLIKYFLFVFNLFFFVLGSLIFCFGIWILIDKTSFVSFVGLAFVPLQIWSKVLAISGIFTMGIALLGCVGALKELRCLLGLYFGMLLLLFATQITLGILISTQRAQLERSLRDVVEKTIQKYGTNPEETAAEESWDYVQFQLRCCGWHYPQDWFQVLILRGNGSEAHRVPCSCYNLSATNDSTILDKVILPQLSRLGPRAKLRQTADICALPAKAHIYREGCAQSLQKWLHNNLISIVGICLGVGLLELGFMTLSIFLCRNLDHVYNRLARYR
Experimental: as §1
(§2) Binding of various CD37 antibodies to cells expressing human CD37 wildtype and variants was analyzed by flow cytometry using 1.5 μg/mL of each antibody. The isolated antibodies of this invention were compared to commercially available CD37 antibody WR17, as well as the TRU-016 SMIP. […] Likewise, all antibodies tested bound the hCD37-M3 variant (FIG. 18B). In contrast, the isolated antibodies of this invention bound the hCD37-M1 variant, while TRU-016 and WR17 were unable to bind hCD37-M1 variant (FIG. 19A). The CD37-50 and CD37-51 antibodies and TRU-016 were also able to bind the hCD37-M45 variant. […] In contrast, the CD37-3, CD37-12, CD37-38, CD37-56 and CD37-57 antibodies require at least one of the AA residues in the hCD37-M45 variant that were changed to the corresponding murine AA residues for binding to the CD37 antigen.

hCD37-M3 = target: T4, hCD37-M3 (human/murine chimera, UniProt P11049 1-281); assay: flow cytometry, 300-19 cells expressing hCD37-M3, 1.5 µg/mL antibody
T4 construct: stably expressed on 300-19 cells; also called hCD37-M3 variant
T4 chain: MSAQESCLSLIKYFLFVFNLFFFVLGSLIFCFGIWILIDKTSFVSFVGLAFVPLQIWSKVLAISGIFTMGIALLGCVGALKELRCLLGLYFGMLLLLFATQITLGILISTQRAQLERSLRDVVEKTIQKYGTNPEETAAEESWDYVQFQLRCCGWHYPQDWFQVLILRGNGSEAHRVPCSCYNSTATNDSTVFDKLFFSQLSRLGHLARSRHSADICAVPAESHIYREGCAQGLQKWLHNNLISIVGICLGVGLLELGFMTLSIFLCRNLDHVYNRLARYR
Experimental: as §1, §2

hCD37-M1 = target: T5, hCD37-M1 (human/murine chimera, UniProt P11049 1-281); assay: flow cytometry, 300-19 cells expressing hCD37-M1, 1.5 µg/mL antibody
T5 construct: stably expressed on 300-19 cells; also called hCD37-M1 variant
T5 chain: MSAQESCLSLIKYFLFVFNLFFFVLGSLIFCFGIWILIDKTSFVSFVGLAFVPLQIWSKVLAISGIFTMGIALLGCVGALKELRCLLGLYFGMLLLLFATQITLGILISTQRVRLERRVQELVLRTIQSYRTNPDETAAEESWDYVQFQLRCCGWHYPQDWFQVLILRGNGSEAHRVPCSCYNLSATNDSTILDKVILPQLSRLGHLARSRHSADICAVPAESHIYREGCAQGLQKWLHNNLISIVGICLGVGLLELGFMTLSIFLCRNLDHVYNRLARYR
Experimental: as §1, §2

macaque CD37 [8] = target: T2, macaque CD37; assay: flow cytometry, 300-19/CD37mac cells
Experimental: as §1
The murine antibodies muCD37-3, muCD37-12, muCD37-38, […], muCD37-51, muCD37-56 and muCD37-57 were assayed for their ability to bind to 300-19/CD37mac cells expressing macaque CD37. Flow cytometry binding assays were carried out using secondary FITC-conjugated goat-anti-murine or goat-anti-human antibodies, analyzed as described in Example 2. Binding was compared to the previously described anti-CD37 antibody WR17 and the anti-CD37 SMIP TRU-016. […] In contrast, muCD37-3, muCD37-12, the previously described anti-CD37 antibody WR17 and the anti-CD37 SMIP TRU-016 are unable to bind the macaque derived CD37 antigen.

B3: huCD37-38 (antibody, human IgG1, kappa, V domains shown)
VH: QVQLQESGPGLVKPSQSLSLTCTVSGYSITSGFGWHWIRQFPGKGLEWMAYILYSGGTDYNPSLKSRISITRDTSKNQFFLRLSSVTAADTATYYCARGYYGYGAWFVYWGQGTLVTVSS
VL: DIVLTQSPASMSASPGERVTMTCSASSSVTYMHWYQQKPGTSPKRWIYDTSKLASGVPARFSGSGSGTSYSLTISSMEAEDAATYYCQQWISNPPTFGGGTKLEIKR
notes: Humanized antibody
- Kd (human CD37 [3]): 1.04 nM
- Kd (human CD37 [5]): 0.3 nM
- Kd (macaque CD37 [6]): 1.1 nM

B4: muCD37-12 (antibody, mouse IgG2a, kappa)
heavy: QIQLVQSGPELKKPGETVKISCKASGYTFTKYGMNWVKQAQGKGLKWMGWINTNTGESRNAEEFKGRFAFSLETSASTAYLQINNLKYEDTATYFCGRGTVVADWGQGTTLTVSSAKTTAPSVYPLAPVCGDTTGSSVTLGCLVKGYFPEPVTLTWNSGSLSSGVHTFPAVLQSDLYTLSSSVTVTSSTWPSQSITCNVAHPASSTKVDKKIEPRGPTIKPCPPCKCPAPNLLGGPSVFIFPPKIKDVLMISLSPIVTCVVVDVSEDDPDVQISWFVNNVEVHTAQTQTHREDYNSTLRVVSALPIQHQDWMSGKEFKCKVNNKDLPAPIERTISKPKGSVRAPQVYVLPPPEEEMTKKQVTLTCMVTDFMPEDIYVEWTNNGKTELNYKNTEPVLDSDGSYFMYSKLRVEKKNWVERNSYSCSVVHEGLHNHHTTKSFSRTPGK
light: DIVLTQSPASLAVSLGQRATISCRASQSVSTSSYSYLYWFQQKPGQPPKLLIKYASNLASGVPARFSGSGSGTDFTLNIHPVEEEDTATYYCQHSWEIPYTFGGGTKLEIKRADAAPTVSIFPPSSEQLTSGGASVVCFLNNFYPKDINVKWKIDGSERQNGVLNSWTDQDSKDSTYSMSSTLTLTKDEYERHNSYTCEATHKTSTSPIVKSFNRNEC
notes: Murine hybridoma antibody
- Kd (human CD37 [7]): 1.1 nM
- Kd (human CD37 [1]): 0.8 nM
- binding result (hCD37-M45): no binding (tested: 1.5 µg/mL)
- binding result (hCD37-M3): binds
- binding result (hCD37-M1): binds
- binding result (macaque CD37 [8]): no binding

Now from value to binder, other results behind:

- Kd (human CD37 [1]): 0.8 nM
- EC50 (human CD37 [2]): 0.7 nM
B1: chCD37-3 (antibody, human IgG1, kappa)
heavy: not shown
light: DIQMTQSPASLSVSVGETVTITCRASENIRSNLAWYQQKQGKSPQLLVNVATNLADGVPSRFSGSGSGTQYSLKINSLQSEDFGTYYCQHYWGTTWTFGGGTKLEIKRTVAAPSVFIFPPSDEQLKSGTASVVCLLNNFYPREAKVQWKVDNALQSGNSQESVTEQDSKDSTYSLSSTLTLSKADYEKHKVYACEVTHQGLSSPVTKSFNRGEC
notes: Chimeric antibody, murine variable regions with human constant regions

- Kd (human CD37 [3]): 1.2 nM
B2: huCD37-38-SMCC-DM1 (antibody, human IgG1, kappa, V domains shown)
VH: B3 VH
VL: B3 VL
modifications: DM1 attached through SMCC linker; attachment residues and load not stated
notes: SMCC-DM1 conjugate of huCD37-38
- EC50 of in vitro cytotoxicity, WST-8 assay, Daudi cells (human CD37 [4]): 0.098 nM
- EC50 of in vitro cytotoxicity, WST-8 assay, Granta-519 cells (human CD37 [4]): 0.074 nM
